{
  "source": "patent US20140057317A1",
  "about": "(Harvard, published 2014)",
  "binders": {"B1": {"name": "Sortase 4S.4 (protein)", "chain": "QAKPQIPKDKSKVAGYIEIPDADIKELVYPGPATREQLSRGVSFTEENESLDDQNISITGHTSIGRPSYQFTNLRAAKKGSMVYFKVGNETRKYKMTSIRNVKPTAVEVLDEQEGKDEQLTLITCDDYNEETGVWETRKIFVATEVK"}, "B2": {"name": "optimized variant 4S.12.2 (protein)", "chain": "B1 chain with L27P, S68N"}, "B3": {"name": "wild type S. aureus sortase A (enzyme)", "chain": "MQAKPQIPKDKSKVAGYIEIPDADIKEPVYPGPATPEQLNRGVSFAEENESLDDQNISIAGHTFIDRPNYQFTNLKAAKKGSMVYFKVGNETRKYKMTSIRDVKPTDVEVLDEQKGKDKQLTLITCDDYNEKTGVWEKRKIFVATEVKLEHHHHHH"}, "B4": {"name": "P94S/D160N/D165A sortase A (protein)", "chain": "B3 chain with P36S, D102N, D107A"}, "B5": {"name": "srtA D160N (protein)", "chain": "B3 chain with D102N"}, "B6": {"name": "P94S/D160N/K196T srtA (enzyme)", "chain": "B3 chain with P36S, D102N, K138T"}, "B7": {"name": "P94S/D165A (clone 4.3) (protein)", "chain": "B3 chain with P36S, D107A"}, "B8": {"name": "srtA D165A (protein)", "chain": "B3 chain with D107A"}, "B9": {"name": "srtA P94S (protein)", "chain": "B3 chain with P36S"}, "B10": {"name": "D160N/K190E/K196T (clone 4.2) (protein)", "chain": "B3 chain with D102N, K132E, K138T"}, "B11": {"name": "P94S/D160N/D165A/K196T sortase A (protein)", "chain": "B3 chain with P36S, D102N, D107A, K138T"}, "B12": {"name": "srtA K196T (protein)", "chain": "B3 chain with K138T"}, "B13": {"name": "P94R/D160N/D165A/K190E/K196T srtA (protein)", "chain": "B3 chain with P36R, D102N, D107A, K132E, K138T"}},
  "key": {"[1]": {"target": "LPESG (SEQ ID NO: 38) substrate"}, "[2]": {"target": "T1, LPETG (SEQ ID NO: 32) substrate", "T1 chain": "LPETG"}, "Abz-LPETGK(Dnp)-CONH2": {"target": "T2, Abz-LPETGK(Dnp)-CONH2", "T2 chain": "LPETGK"}, "[3]": {"target": "T3, human CD154 tagged with the LPETG sequence at its C terminus (human, UniProt P29965 1-261)", "T3 sequence": "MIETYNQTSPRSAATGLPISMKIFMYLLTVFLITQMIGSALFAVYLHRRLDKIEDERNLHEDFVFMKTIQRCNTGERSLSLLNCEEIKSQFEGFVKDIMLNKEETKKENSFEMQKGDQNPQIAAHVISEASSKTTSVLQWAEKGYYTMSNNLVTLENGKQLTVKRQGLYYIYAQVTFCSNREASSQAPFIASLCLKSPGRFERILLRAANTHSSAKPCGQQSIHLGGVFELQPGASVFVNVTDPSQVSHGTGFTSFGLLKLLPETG", "assay": "cell-based or functional assay"}, "Gly-Gly-Gly-COOH (GGG)": {"target": "T4, Gly-Gly-Gly-COOH (GGG)", "T4 chain": "GGG"}},
  "note": "Changes are numbered by the printed parent chain. Numbers in names are those of the source.",
  "data": [
    {"binder": "B1", "values": [
      {"measurement": "activity against LPESG", "setting": "[1]", "result": "activity against LPESG (SEQ ID NO: 38) comparable to the starting type pentamutant"},
      {"measurement": "altered substrate specificity, LPESG against LPETG, as determined by Kcat/Km (HPLC-based substrate cleavage assay)", "setting": "[1]", "result": "remarkably altered substrate specificity (>4000-fold, as determined by Kcat/Km)"},
      {"measurement": "activity against LPETG", "setting": "[2]", "result": "completely abrogated activity against LPETG (SEQ ID NO: 32)"}
    ]},
    {"binder": "B2", "values": [
      {"measurement": "activity against LPESG", "setting": "[1]", "result": "activity against LPESG (SEQ ID NO: 38) comparable to the starting type pentamutant"},
      {"measurement": "activity against LPETG", "setting": "[2]", "result": "completely abrogated activity against LPETG (SEQ ID NO: 32)"}
    ]},
    {"binder": "B3", "values": [
      {"measurement": "kcat/Km LPETG", "setting": "Abz-LPETGK(Dnp)-CONH2", "result": 200, "unit": "M⁻¹ s⁻¹"},
      {"measurement": "fluorescence of live HeLa cells labeled with GGGYK-biotin over background without enzyme, flow cytometry", "setting": "[3]", "result": "≤ 2.8", "unit": "fold"}
    ]},
    {"binder": "B4", "values": [
      {"measurement": "fold change in KM LPETG compared to the tetramutant", "setting": "Abz-LPETGK(Dnp)-CONH2", "result": "KM LPETG were not altered by more than a factor of 3-fold"},
      {"measurement": "kcat/Km LPETG", "setting": "Abz-LPETGK(Dnp)-CONH2", "result": "7500 ± 300", "unit": "M⁻¹ s⁻¹"},
      {"measurement": "fold improvement in Km GGG compared to the tetramutant", "setting": "Gly-Gly-Gly-COOH (GGG)", "result": "the Km GGG of this mutant improved by 2.7-fold"}
    ]},
    {"binder": "B5", "values": [
      {"measurement": "kcat/Km LPETG", "setting": "Abz-LPETGK(Dnp)-CONH2", "result": 600, "unit": "M⁻¹ s⁻¹"}
    ]},
    {"binder": "B6", "values": [
      {"measurement": "fold increase in KM LPETG compared to the tetramutant", "setting": "Abz-LPETGK(Dnp)-CONH2", "result": 3, "unit": "fold"},
      {"measurement": "kcat/Km LPETG", "setting": "Abz-LPETGK(Dnp)-CONH2", "result": "8600 ± 1500", "unit": "M⁻¹ s⁻¹"},
      {"measurement": "fold improvement in Km GGG compared to the tetramutant", "setting": "Gly-Gly-Gly-COOH (GGG)", "result": "a 2.6-fold improvement in Km GGG"},
      {"measurement": "median fluorescence (streptavidin-AlexaFluor594) of live HeLa cells labeled with GGGYK-biotin, flow cytometry", "setting": "[3]", "result": "≥ 30", "unit": "fold"}
    ]},
    {"binder": "B7", "values": [
      {"measurement": "fold enhancement in catalytic efficiency compared to wild type", "setting": "Abz-LPETGK(Dnp)-CONH2", "result": "an approximately 15-fold enhancement in catalytic efficiency at using the LPETG (SEQ ID NO: 32) substrate"},
      {"measurement": "fold reduction in Km LPETG compared to wild type", "setting": "Abz-LPETGK(Dnp)-CONH2", "result": "a 5-7-fold reduction in Km LPETG"},
      {"measurement": "kcat/Km LPETG", "setting": "Abz-LPETGK(Dnp)-CONH2", "result": "2600 ± 100", "unit": "M⁻¹ s⁻¹"}
    ]},
    {"binder": "B8", "values": [
      {"measurement": "kcat/Km LPETG", "setting": "Abz-LPETGK(Dnp)-CONH2", "result": 700, "unit": "M⁻¹ s⁻¹"}
    ]},
    {"binder": "B9", "values": [
      {"measurement": "kcat/Km LPETG", "setting": "Abz-LPETGK(Dnp)-CONH2", "result": 600, "unit": "M⁻¹ s⁻¹"}
    ]},
    {"binder": "B10", "values": [
      {"measurement": "fold enhancement in catalytic efficiency compared to wild type", "setting": "Abz-LPETGK(Dnp)-CONH2", "result": "an approximately 15-fold enhancement in catalytic efficiency at using the LPETG (SEQ ID NO: 32) substrate"},
      {"measurement": "fold reduction in Km LPETG compared to wild type", "setting": "Abz-LPETGK(Dnp)-CONH2", "result": "a 5-7-fold reduction in Km LPETG"},
      {"measurement": "kcat/Km LPETG", "setting": "Abz-LPETGK(Dnp)-CONH2", "result": "2400 ± 700", "unit": "M⁻¹ s⁻¹"}
    ]},
    {"binder": "B11", "values": [
      {"measurement": "fold decrease in KM LPETG compared to wild type", "setting": "Abz-LPETGK(Dnp)-CONH2", "result": "The 50-fold decrease in KM LPETG of the tetramutant compared to wild type"},
      {"measurement": "fold improved LPETG recognition compared to wild type", "setting": "Abz-LPETGK(Dnp)-CONH2", "result": "45-fold improved LPETG (SEQ ID NO: 32) recognition"},
      {"measurement": "fold improvement in kcat/Km LPETG compared to wild type", "setting": "Abz-LPETGK(Dnp)-CONH2", "result": "a 140-fold improvement in its ability to convert LPETG (SEQ ID NO: 32) (kcat/Km LPETG)"},
      {"measurement": "kcat/Km LPETG", "setting": "Abz-LPETGK(Dnp)-CONH2", "result": "28000 ± 7000", "unit": "M⁻¹ s⁻¹"},
      {"measurement": "fold increase in Km GGG compared to wild type", "setting": "Gly-Gly-Gly-COOH (GGG)", "result": "a 30-fold increase in Km GGG for the sortase A tetramutant"}
    ]},
    {"binder": "B12", "values": [
      {"measurement": "kcat/Km LPETG", "setting": "Abz-LPETGK(Dnp)-CONH2", "result": 400, "unit": "M⁻¹ s⁻¹"}
    ]},
    {"binder": "B13", "values": [
      {"measurement": "Km LPETG (fit of the one-hour time course, FIG. 16)", "setting": "Abz-LPETGK(Dnp)-CONH2", "result": "Km LPETG=245±5 µM"},
      {"measurement": "fold change in KM LPETG compared to the tetramutant", "setting": "Abz-LPETGK(Dnp)-CONH2", "result": "the kcat and KM LPETG were not altered by more than a factor of 1.3-fold"},
      {"measurement": "fold higher kcat/KM LPETG compared with wild type srtA", "setting": "Abz-LPETGK(Dnp)-CONH2", "result": "a 120-fold higher kcat/KM LPETG"},
      {"measurement": "kcat/Km LPETG", "setting": "Abz-LPETGK(Dnp)-CONH2", "result": "23000 ± 3000", "unit": "M⁻¹ s⁻¹"},
      {"measurement": "fold higher Km GGG compared with wild type srtA", "setting": "Gly-Gly-Gly-COOH (GGG)", "result": "a 20-fold higher Km GGG"},
      {"measurement": "fold improvement in Km GGG compared to the tetramutant", "setting": "Gly-Gly-Gly-COOH (GGG)", "result": "the Km GGG of this mutant improved by 1.8-fold"}
    ]}
  ]
}
